These results are taken from patent publication US20160000860A1 (University of California, published 2016).

Bridges are numbered along the chain shown (N, C = ends). Where no end group is shown, it is not given here.

To fix the notation:
T1: recombinant human osteogenic protein-1 (rhOP-1, rhBMP-7) (human, UniProt P18075 293-431)
T1 construct: Amine-coupled to a CM-5 sensor chip
T1 sequence (looked up): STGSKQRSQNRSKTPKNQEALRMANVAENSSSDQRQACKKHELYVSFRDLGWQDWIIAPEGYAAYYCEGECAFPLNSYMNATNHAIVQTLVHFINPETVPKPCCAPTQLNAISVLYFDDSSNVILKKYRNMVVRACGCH

T2: spp24 (secreted phosphoprotein, 24 kD), the parental protein of BBP (Bos taurus (Bovine), UniProt Q27967 24-203)
T2 construct: also called the related protein
T2 sequence: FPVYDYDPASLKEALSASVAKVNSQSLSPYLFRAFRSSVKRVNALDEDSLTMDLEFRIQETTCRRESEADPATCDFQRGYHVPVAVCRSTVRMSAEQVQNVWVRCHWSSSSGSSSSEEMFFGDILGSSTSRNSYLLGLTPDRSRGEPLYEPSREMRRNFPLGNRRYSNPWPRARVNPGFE

B1: BMP Binding Peptide (BBP), cyclized synthetic 19 amino acid peptide (peptide)
peptide: CRSTVRMSAEQVQNVWVRC
modifications: disulfide 1-19 (inferred)
notes: it is treated here as the same bovine cyclic peptide; also called cyclized BBP
B2: recombinant human bone morphogenetic protein-2 (rhBMP-2) (ligand, UniProt P12643 283-396, looked up)
chain: QAKHKQRKRLKSSCKRHPLYVDFSDVGWNDWIVAPPGYHAFYCHGECPFPLADHLNSTNHAIVQTLVNSVNSKIPKACCVPTELSAISMLYLDENEKVVLKNYQDMVVEGCGCR
notes: Amine-coupled to a CM-5 sensor chip

In test [1] the target is B2. Nature of the test: SPR (Biacore X), ligand amine-coupled to CM-5 chip, Langmuir analysis. How it is done: (§1) The supernatant was decanted and used for analyses. Protein concentrations were determined using UV spectroscopy at an absorbance of 280 nm. Extinction coefficients were calculated using ProtParam tool (www.expasy.ch/tools/protparam.html). Flow rates ranged from 5 to 50 μl/min, and injection volumes were 20 to 100 μl. To ensure uniformity, an effort was made to react sufficient ligand to the chip to give a baseline value of about 2500 RU (response units). The kinetic constants kₐ (on rate, association constant, “recognition”) and kd (off rate, dissociation constant, “stability”) as well as the equilibrium constant KD (equilibrium constant, “affinity”) were determined by a Langmuir analysis using BIAevaluation software (version 3.2) installed on the instrument by the manufacturer.
For orientation: SPR reads the build-up and loss of mass on a sensor chip optically.

Test [2] deals with recombinant human transforming growth factor-beta (rhTGF-β) (human). The test is described as above. The method, then:
as §1

Test [3] concerns the target T1, recombinant human osteogenic protein-1 …. The test is described as above. How it is done: as §1
Test [4] has as its target B2. As to the kind of experiment: SPR (Biacore X), rhBMP-2 on CM-5 chip, peptide as analyte; rhBMP-2 affixed to the chip; cyclized BBP, not reduced.
In test [5] the target is B2. Nature of the test: cell-based or functional assay.
The target in test [6] is T2, spp24 (secreted phosphoprotein, 24 kD), …. As to the kind of experiment: SPR (Biacore X), ligand amine-coupled to CM-5 chip, Langmuir analysis. How it is done: as §1

recombinant human transforming growth factor-beta (rhTGF-β) (human), sequence (P01137 279-390): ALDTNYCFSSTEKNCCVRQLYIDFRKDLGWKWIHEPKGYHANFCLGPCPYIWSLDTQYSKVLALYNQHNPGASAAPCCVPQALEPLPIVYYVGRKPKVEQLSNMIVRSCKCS

For orientation: Kd means the equilibrium constant for the complex coming apart. For B1, the dissociation constant (Kd) in test [1] is 53.3 nM; in test [2], 68 nM; in test [3], 1160 nM; in test [4], around 30000 nM. In test [5], the “retention of labeled rhBMP-2 in collagen sponge implants in rodent muscle pouches” value was around 2 fold.
The term koff denotes the first-order rate constant of dissociation. The kon is the second-order rate constant of association. Consider B2, for which, in test [6], the Kd worked out at 17.7 nM, the koff is 0.0055 s⁻¹ and the kon was determined as 311000 M⁻¹ s⁻¹.
